Reference: publication doi:10.1101/2021.02.03.429564
One block for each molecule: values may come before it.

Assays:
[1] = molecular target: full-length recombinant human RAD51 protein, N-terminal 6xHis-tagged (human) (UniProt Q06609); assay: MST
[2] = molecular target: full-length recombinant human RAD51 protein, N-terminal 6xHis-tagged (human) (UniProt Q06609); assay: static light scattering
[3] = molecular target: full-length recombinant human RAD51 protein, N-terminal 6xHis-tagged (human) (UniProt Q06609)
[4] = molecular target: T1, full-length recombinant human RAD51 protein, N-terminal 6xHis-tagged (human), Q06609; assay: static light scattering; conditions: remark: other sources report otherwise
T1 chain: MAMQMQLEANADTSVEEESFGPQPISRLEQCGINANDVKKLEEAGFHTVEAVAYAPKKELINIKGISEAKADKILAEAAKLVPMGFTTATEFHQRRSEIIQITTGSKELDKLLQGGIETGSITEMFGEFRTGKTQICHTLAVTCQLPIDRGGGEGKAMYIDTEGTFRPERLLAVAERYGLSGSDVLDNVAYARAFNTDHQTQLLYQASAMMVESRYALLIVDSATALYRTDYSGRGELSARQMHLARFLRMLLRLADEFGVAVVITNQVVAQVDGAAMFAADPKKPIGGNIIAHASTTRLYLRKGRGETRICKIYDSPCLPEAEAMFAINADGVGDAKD

EC50 [1]: 0.06 to 0.08 µM
EC50 [2]: 4 to 5 µM
Molecule: BRC4 peptide (fourth BRC repeat of the BRCA2 protein)

IC50 of inhibition of homologous recombination in BxPC-3 cells [3]: 5 µM
Molecule: Myristoylated BRC4 (BRC4-ss-Myr) (peptide)

stoichiometry N [4]: 40 protomers
B1: full-length recombinant human RAD51 protein, N-terminal 6xHis-tagged, Q06609 1-339 (natural protein)
chain: MAMQMQLEANADTSVEEESFGPQPISRLEQCGINANDVKKLEEAGFHTVEAVAYAPKKELINIKGISEAKADKILAEAAKLVPMGFTTATEFHQRRSEIIQITTGSKELDKLLQGGIETGSITEMFGEFRTGKTQICHTLAVTCQLPIDRGGGEGKAMYIDTEGTFRPERLLAVAERYGLSGSDVLDNVAYARAFNTDHQTQLLYQASAMMVESRYALLIVDSATALYRTDYSGRGELSARQMHLARFLRMLLRLADEFGVAVVITNQVVAQVDGAAMFAADPKKPIGGNIIAHASTTRLYLRKGRGETRICKIYDSPCLPEAEAMFAINADGVGDAKD
